Experimental data reported in publication PMC4255728.

Assays:
[1] = target: Saccharomyces cerevisiae cytochrome c oxidase, 5A isoenzyme (strain WTCOX5A) (S. cerevisiae) (UniProt P00401)
[2] = target: Saccharomyces cerevisiae cytochrome c oxidase, 5B isoenzyme (strain COX5B, COX5B downstream of the COX5A promoter) (S. cerevisiae) (UniProt P00401)
[3] = target: Saccharomyces cerevisiae cytochrome c oxidase, 5B isoenzyme (strain ΔROX1ΔCOX5A, COX5B under its own promoter) (S. cerevisiae) (UniProt P00401)

Work on “Horse heart cytochrome c (from UniProt P00004 1-105) (natural protein)” yielded a Km for cyt c (low-affinity phase), steady-state oxygen consumption of mitos, 1.25-350 μM cyt c, 25°C, pH 6.6, 50 mM KCl, 0.05% DDM [1] of 13.9 μM, a Km for cyt c (low-affinity phase), steady-state oxygen consumption of mitos, 1.25-350 μM cyt c, 25°C, pH 6.6, 50 mM KCl, 0.05% DDM [2] of 14.5 μM and a Km for cyt c (low-affinity phase), steady-state oxygen consumption of mitos, 1.25-350 μM cyt c, 25°C, pH 6.6, 50 mM KCl, 0.05% DDM [3] of 10.8 μM.
“Yeast iso-1 cytochrome c (isoform-1) (from UniProt P00044 1-109) (natural protein)” showed a Km for cyt c (low-affinity phase of biphasic kinetics), steady-state oxygen consumption of mitos, 1.25-350 μM cyt c, 25°C, pH 6.6, 50 mM KCl, 0.05% DDM [1] of 29.8 μM, a Km for cyt c (low-affinity phase of biphasic kinetics), steady-state oxygen consumption of mitos, 1.25-350 μM cyt c, 25°C, pH 6.6, 50 mM KCl, 0.05% DDM [2] of 39.5 μM and a Km for cyt c (low-affinity phase of biphasic kinetics), steady-state oxygen consumption of mitos, 1.25-350 μM cyt c, 25°C, pH 6.6, 50 mM KCl, 0.05% DDM [3] of 41.2 μM.
“Yeast iso-2 cytochrome c (isoform-2) (from UniProt P00045 1-113) (natural protein)” was tested, and the Km for cyt c (low-affinity phase of biphasic kinetics), steady-state oxygen consumption of mitos, 1.25-350 μM cyt c, 25°C, pH 6.6, 50 mM KCl, 0.05% DDM [1] was 23.9 μM, the Km for cyt c (low-affinity phase of biphasic kinetics), steady-state oxygen consumption of mitos, 1.25-350 μM cyt c, 25°C, pH 6.6, 50 mM KCl, 0.05% DDM [2] was 59.5 μM and the Km for cyt c (low-affinity phase of biphasic kinetics), steady-state oxygen consumption of mitos, 1.25-350 μM cyt c, 25°C, pH 6.6, 50 mM KCl, 0.05% DDM [3] was 47.8 μM.
